The target of the assay is human insulin (human, UniProt P01308 25-54; P01308 90-110). The experiment in a line: ELISA, recombinant antibodies from 293FT culture. On the procedure:
The full lengths of the guinea pig γ chain, κ chain, and λ chain gene expression units amplified in the above experiments were genetically introduced into 293FT cells and the cells were cultured for two days to bring about the secretion of recombinant guinea pig antibodies in the cell culture. The ability to bind human insulin of the recombinant guinea pig monoclonal antibodies obtained from the antigen specific and nonspecific plasma cells was examined by the ELISA method (FIG. 9).
Background: In an ELISA, binding on a coated surface is turned into a signal by an enzyme label.

human insulin, sequence (P01308 25-54 limits assumed, chain 1 of 2): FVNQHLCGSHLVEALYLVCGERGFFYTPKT
human insulin, sequence (P01308 90-110 limits assumed, chain 2 of 2): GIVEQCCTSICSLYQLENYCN

B1: guinea pig monoclonal antibody to human insulin, Sample No. 5 (antibody, V domains shown)
VH: QVQLQESGPGLVKPSETLSLTCKVSGFSLMDYSVSWIRQAPGEGLEWIGVIWSSGSTDYNSTFKSRVGMSRDTSKSQVSITLRSLSSEDTAVYYCARAQYFDVWGAGTLVTVSS
VL: QIVLTQSPASLAASPGQKVTITCTASSSVNNNFFHWYQQKPGASPTLLIYRTSRLASGVPARFSGSGSGTSYSLTISSMEGEDVATYYCLQSNSYTFGAGTRLEIK
notes: Recombinant guinea pig IgG (γ/κ) secreted by 293FT cells
As to B1, the binding result is recorded as “binds”.

For the origin of these results see patent US20140031528A1 (NATIONAL UNIVERSITY CORPORATION UNIVERSITY OF TOYAMA, published 2014).
